Values quoted from earlier work as cited in publication PMC8695629.

Key:
BCOR (Homo sapiens) = BCOR (Homo sapiens) (UniProt Q6W2J9)
CBX8 (Homo sapiens) = CBX8 (Homo sapiens) (UniProt Q9HC52)
[1] = target: DOT1L 7-mer peptide (Homo sapiens) (UniProt Q8TEK3); assay: fluorescence polarization
[2] = target: DOT1L 10-mer peptide (Homo sapiens) (UniProt Q8TEK3)

Sequence of UniProt Q6W2J9 (Q6W2J9 whole entry): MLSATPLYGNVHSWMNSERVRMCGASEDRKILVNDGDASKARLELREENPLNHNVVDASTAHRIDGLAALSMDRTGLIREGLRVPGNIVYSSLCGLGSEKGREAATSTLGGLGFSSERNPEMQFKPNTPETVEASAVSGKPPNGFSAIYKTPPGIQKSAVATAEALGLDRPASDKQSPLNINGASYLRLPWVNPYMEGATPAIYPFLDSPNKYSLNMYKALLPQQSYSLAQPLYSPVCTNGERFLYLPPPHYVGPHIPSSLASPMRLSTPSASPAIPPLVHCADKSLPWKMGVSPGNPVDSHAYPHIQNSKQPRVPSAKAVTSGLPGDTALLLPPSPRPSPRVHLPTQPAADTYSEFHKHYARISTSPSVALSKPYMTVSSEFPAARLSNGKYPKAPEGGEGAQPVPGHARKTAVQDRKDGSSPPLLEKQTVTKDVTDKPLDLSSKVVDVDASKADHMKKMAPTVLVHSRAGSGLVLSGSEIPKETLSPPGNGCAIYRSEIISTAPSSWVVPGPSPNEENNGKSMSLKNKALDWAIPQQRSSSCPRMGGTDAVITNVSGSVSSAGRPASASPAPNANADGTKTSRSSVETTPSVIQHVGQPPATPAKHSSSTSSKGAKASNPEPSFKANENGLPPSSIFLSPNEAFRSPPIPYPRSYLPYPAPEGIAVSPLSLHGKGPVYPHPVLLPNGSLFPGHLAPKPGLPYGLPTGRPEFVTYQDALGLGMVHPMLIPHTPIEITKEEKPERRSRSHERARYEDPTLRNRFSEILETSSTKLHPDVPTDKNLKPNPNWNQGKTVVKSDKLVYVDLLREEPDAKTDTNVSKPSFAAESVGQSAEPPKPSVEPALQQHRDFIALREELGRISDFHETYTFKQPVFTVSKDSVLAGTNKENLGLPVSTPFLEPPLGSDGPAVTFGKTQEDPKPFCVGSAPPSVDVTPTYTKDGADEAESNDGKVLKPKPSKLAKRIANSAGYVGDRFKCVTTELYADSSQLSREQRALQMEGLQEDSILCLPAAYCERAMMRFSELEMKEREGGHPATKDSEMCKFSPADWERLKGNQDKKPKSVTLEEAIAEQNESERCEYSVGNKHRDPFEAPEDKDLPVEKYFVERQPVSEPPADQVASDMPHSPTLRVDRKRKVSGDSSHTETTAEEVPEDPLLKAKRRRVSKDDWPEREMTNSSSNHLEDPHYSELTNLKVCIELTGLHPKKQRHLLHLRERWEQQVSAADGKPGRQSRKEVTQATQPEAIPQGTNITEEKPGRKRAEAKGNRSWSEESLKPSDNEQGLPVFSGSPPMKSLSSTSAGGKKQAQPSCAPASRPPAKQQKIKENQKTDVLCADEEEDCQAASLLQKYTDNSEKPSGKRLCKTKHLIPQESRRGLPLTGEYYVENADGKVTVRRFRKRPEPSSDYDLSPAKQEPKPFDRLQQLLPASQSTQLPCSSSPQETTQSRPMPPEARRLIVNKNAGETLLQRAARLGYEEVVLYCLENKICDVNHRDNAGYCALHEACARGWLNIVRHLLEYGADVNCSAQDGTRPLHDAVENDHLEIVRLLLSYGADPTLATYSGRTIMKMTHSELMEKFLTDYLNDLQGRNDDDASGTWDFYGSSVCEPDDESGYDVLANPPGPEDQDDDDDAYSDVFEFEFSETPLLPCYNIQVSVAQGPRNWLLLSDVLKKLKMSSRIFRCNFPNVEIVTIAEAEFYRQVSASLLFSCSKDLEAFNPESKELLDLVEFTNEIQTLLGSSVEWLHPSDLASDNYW
Sequence of UniProt Q9HC52 (Q9HC52 whole entry A335V): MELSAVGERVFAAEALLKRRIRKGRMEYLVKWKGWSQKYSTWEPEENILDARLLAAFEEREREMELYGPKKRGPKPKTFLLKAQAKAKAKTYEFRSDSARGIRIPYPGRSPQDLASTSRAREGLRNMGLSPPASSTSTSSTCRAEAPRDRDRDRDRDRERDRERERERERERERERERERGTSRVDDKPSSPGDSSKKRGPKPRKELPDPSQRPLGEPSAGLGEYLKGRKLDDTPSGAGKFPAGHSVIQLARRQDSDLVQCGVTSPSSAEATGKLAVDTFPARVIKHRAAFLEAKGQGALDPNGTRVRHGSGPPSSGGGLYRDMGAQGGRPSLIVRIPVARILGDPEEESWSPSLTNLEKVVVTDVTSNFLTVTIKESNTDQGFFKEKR

MLLT3 (AF9) AHD (from UniProt P42568)
Kd (BCOR (Homo sapiens)): > 3000 nM | Kd (CBX8 (Homo sapiens)): 12 nM | Ki [1]: 160 nM | Kd [2]: 19 nM
